Data on 1 molecule can be found in publication PMC7666136.

Assay [1] addresses T1, eGFP-53BP1 (wild-type TP53-binding protein 1 tagged with enhanced green fluorescent protein), Q12888.
T1 chain: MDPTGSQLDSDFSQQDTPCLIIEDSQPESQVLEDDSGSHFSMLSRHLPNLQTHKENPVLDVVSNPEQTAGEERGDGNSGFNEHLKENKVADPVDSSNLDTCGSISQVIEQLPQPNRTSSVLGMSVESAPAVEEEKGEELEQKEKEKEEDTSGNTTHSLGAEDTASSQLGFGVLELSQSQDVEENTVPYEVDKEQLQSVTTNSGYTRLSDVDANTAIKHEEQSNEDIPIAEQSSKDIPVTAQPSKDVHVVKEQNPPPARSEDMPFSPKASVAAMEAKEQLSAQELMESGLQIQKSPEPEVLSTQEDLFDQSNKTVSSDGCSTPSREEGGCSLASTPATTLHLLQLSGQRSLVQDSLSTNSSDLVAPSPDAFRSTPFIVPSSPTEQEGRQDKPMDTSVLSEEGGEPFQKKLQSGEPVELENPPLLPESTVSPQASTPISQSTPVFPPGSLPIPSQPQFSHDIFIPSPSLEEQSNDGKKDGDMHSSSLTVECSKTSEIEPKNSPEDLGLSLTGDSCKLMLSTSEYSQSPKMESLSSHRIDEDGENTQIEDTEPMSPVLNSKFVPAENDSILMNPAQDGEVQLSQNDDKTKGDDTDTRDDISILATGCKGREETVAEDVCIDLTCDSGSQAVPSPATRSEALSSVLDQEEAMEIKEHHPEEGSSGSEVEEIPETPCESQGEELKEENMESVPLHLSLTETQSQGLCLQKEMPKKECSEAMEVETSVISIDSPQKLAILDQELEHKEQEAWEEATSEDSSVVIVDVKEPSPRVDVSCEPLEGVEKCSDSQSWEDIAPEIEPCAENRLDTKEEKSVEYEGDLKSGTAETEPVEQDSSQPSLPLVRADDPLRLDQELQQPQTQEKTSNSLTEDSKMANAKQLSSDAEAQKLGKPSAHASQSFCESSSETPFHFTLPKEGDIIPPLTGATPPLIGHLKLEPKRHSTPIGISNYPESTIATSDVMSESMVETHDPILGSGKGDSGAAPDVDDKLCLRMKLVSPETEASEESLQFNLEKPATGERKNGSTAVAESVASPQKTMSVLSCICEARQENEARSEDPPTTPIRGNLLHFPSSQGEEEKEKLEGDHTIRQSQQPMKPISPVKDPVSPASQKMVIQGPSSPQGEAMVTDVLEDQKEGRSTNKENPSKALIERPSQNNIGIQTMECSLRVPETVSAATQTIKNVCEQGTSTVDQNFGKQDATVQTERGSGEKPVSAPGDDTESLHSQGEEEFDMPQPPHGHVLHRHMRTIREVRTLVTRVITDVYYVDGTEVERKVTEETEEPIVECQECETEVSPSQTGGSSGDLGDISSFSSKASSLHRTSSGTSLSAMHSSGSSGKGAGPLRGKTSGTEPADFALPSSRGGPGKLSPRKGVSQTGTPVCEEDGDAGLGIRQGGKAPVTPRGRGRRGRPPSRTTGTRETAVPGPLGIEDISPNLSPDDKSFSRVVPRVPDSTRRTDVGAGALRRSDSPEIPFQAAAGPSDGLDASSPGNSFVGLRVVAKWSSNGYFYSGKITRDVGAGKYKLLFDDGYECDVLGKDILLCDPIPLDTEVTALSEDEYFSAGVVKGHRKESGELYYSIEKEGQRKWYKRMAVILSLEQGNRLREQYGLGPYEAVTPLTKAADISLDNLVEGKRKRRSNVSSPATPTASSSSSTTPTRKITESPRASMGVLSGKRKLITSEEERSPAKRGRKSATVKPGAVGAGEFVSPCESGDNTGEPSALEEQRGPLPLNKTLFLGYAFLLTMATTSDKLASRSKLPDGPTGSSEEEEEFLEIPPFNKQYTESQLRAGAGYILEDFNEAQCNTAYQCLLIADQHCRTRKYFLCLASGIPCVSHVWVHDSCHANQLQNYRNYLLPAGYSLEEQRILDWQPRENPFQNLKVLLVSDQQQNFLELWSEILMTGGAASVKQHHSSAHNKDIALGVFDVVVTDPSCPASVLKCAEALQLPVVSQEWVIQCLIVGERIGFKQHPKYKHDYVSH
Kind of assay: cross-pair correlation function (cross-pCF) analysis, two-colour fluorescence cross-correlation; two-channel line scans in live DIvA cells co-transfected with eGFP- and mKate2-tagged copies of the same 53BP1 construct, treated with 4OHT for 60 min; dimer fraction from cross pCF0 against pCF0, corrected for spectral bleed through. Particulars: remark: other sources report otherwise.

For assay [2], the target named is T1, eGFP-53BP1 (wild-type TP53-binding …). Kind of assay: Number and Brightness (NB) analysis of fluorescence fluctuation spectroscopy; frame scans in nuclei of live DIvA cells expressing eGFP-tagged 53BP1 constructs, 37 °C, brightness windows calibrated on free eGFP (B monomer 1.15, dimer 1.30, oligomer >1.60); before and 30-60 min after 4OHT induction of DSBs; also after knockdown of endogenous 53BP1. Particulars: remark: other sources report otherwise.

B1: eGFP-53BP1 (wild-type TP53-binding protein 1 tagged with enhanced green fluorescent protein), Q12888 1-1972 (natural protein)
chain: MDPTGSQLDSDFSQQDTPCLIIEDSQPESQVLEDDSGSHFSMLSRHLPNLQTHKENPVLDVVSNPEQTAGEERGDGNSGFNEHLKENKVADPVDSSNLDTCGSISQVIEQLPQPNRTSSVLGMSVESAPAVEEEKGEELEQKEKEKEEDTSGNTTHSLGAEDTASSQLGFGVLELSQSQDVEENTVPYEVDKEQLQSVTTNSGYTRLSDVDANTAIKHEEQSNEDIPIAEQSSKDIPVTAQPSKDVHVVKEQNPPPARSEDMPFSPKASVAAMEAKEQLSAQELMESGLQIQKSPEPEVLSTQEDLFDQSNKTVSSDGCSTPSREEGGCSLASTPATTLHLLQLSGQRSLVQDSLSTNSSDLVAPSPDAFRSTPFIVPSSPTEQEGRQDKPMDTSVLSEEGGEPFQKKLQSGEPVELENPPLLPESTVSPQASTPISQSTPVFPPGSLPIPSQPQFSHDIFIPSPSLEEQSNDGKKDGDMHSSSLTVECSKTSEIEPKNSPEDLGLSLTGDSCKLMLSTSEYSQSPKMESLSSHRIDEDGENTQIEDTEPMSPVLNSKFVPAENDSILMNPAQDGEVQLSQNDDKTKGDDTDTRDDISILATGCKGREETVAEDVCIDLTCDSGSQAVPSPATRSEALSSVLDQEEAMEIKEHHPEEGSSGSEVEEIPETPCESQGEELKEENMESVPLHLSLTETQSQGLCLQKEMPKKECSEAMEVETSVISIDSPQKLAILDQELEHKEQEAWEEATSEDSSVVIVDVKEPSPRVDVSCEPLEGVEKCSDSQSWEDIAPEIEPCAENRLDTKEEKSVEYEGDLKSGTAETEPVEQDSSQPSLPLVRADDPLRLDQELQQPQTQEKTSNSLTEDSKMANAKQLSSDAEAQKLGKPSAHASQSFCESSSETPFHFTLPKEGDIIPPLTGATPPLIGHLKLEPKRHSTPIGISNYPESTIATSDVMSESMVETHDPILGSGKGDSGAAPDVDDKLCLRMKLVSPETEASEESLQFNLEKPATGERKNGSTAVAESVASPQKTMSVLSCICEARQENEARSEDPPTTPIRGNLLHFPSSQGEEEKEKLEGDHTIRQSQQPMKPISPVKDPVSPASQKMVIQGPSSPQGEAMVTDVLEDQKEGRSTNKENPSKALIERPSQNNIGIQTMECSLRVPETVSAATQTIKNVCEQGTSTVDQNFGKQDATVQTERGSGEKPVSAPGDDTESLHSQGEEEFDMPQPPHGHVLHRHMRTIREVRTLVTRVITDVYYVDGTEVERKVTEETEEPIVECQECETEVSPSQTGGSSGDLGDISSFSSKASSLHRTSSGTSLSAMHSSGSSGKGAGPLRGKTSGTEPADFALPSSRGGPGKLSPRKGVSQTGTPVCEEDGDAGLGIRQGGKAPVTPRGRGRRGRPPSRTTGTRETAVPGPLGIEDISPNLSPDDKSFSRVVPRVPDSTRRTDVGAGALRRSDSPEIPFQAAAGPSDGLDASSPGNSFVGLRVVAKWSSNGYFYSGKITRDVGAGKYKLLFDDGYECDVLGKDILLCDPIPLDTEVTALSEDEYFSAGVVKGHRKESGELYYSIEKEGQRKWYKRMAVILSLEQGNRLREQYGLGPYEAVTPLTKAADISLDNLVEGKRKRRSNVSSPATPTASSSSSTTPTRKITESPRASMGVLSGKRKLITSEEERSPAKRGRKSATVKPGAVGAGEFVSPCESGDNTGEPSALEEQRGPLPLNKTLFLGYAFLLTMATTSDKLASRSKLPDGPTGSSEEEEEFLEIPPFNKQYTESQLRAGAGYILEDFNEAQCNTAYQCLLIADQHCRTRKYFLCLASGIPCVSHVWVHDSCHANQLQNYRNYLLPAGYSLEEQRILDWQPRENPFQNLKVLLVSDQQQNFLELWSEILMTGGAASVKQHHSSAHNKDIALGVFDVVVTDPSCPASVLKCAEALQLPVVSQEWVIQCLIVGERIGFKQHPKYKHDYVSH
The term stoichiometry N denotes a count of units in the complex or per binding partner. B1: the fraction of 53BP1 dimer (cross pCF0 against pCF0) in assay [1] was determined as 31%. In addition, in assay [2], the fraction of dimer (NB, percent of pixels) was 26%; the fraction of oligomer (NB, percent of pixels) stood at 2%; the stoichiometry N turned out to be 2.
